This assay concerns the target Recombinant ligand-binding domain of McpC (amino acid residues 35-189) (Salmonella enterica serovar Typhimurium SL1344). Briefly: AUC; sedimentation velocity analytical ultracentrifugation (SV-AUC), done commercially (KBI BioPharma); purified McpC ligand-binding domain; dimers present at >=4 mg/mL; monomer to dimer.

As usually defined, the stoichiometry N is a count of units in the complex or per binding partner. For the substance “Recombinant ligand-binding domain of McpC (amino acid residues 35-189) (domain or fragment)”, the stoichiometry N stood at 2.

These data come from PMC7806825.
